Results as given in US9358023B2, “Systems and methods for opening of a tissue barrier” (priority 2009, dated 2016).

Experiments:
blood-brain barrier [1] = test: Volume and duration of FUS-induced BBB opening with size-isolated microbubbles, by Gd-DTPA-BMA contrast-enhanced T1 MRI; format: in vivo, mice (C57BL/6)
Excerpt: Acoustic waves used were generated by a single-element, spherical-segment FUS transducer (center frequency: 1.5 MHz, focal depth: 60 mm, radius: 30 mm; Imasonic, France), which was driven by a function generator (Agilent, Palo Alto, Calif.) through a 50-dB power amplifier (E&I, Rochester, N.Y.) (for example as shown in FIG. 5). A central-void (radius: 11.2 mm) of the therapeutic transducer held a pulse-echo ultrasound transducer (center frequency: 10 MHz, focal length: 60 mm), which was used for imaging, with their two foci aligned. The imaging transducer was driven by a pulser-receiver (Olympus, Waltham, Mass.) connected to a digitizer (Gage Applied Technologies, Lachine, QC, Canada). A cone filled with degassed and distilled water was mounted onto the transducer system and was fitted with a polyurethane membrane (Trojan; Church & Dwight Co., Princeton, N.J.). The transducers were attached to a computer-controlled 3D positioning system (Velmex, Lachine, QC, Canada). The targeting procedure has been described herein. […]
BBB opening in the murine hippocampus was confirmed using a 9.4 T system (Broker Medical; Boston, Mass.). […] Vital signals were monitored and respiration rate was approximately 55 breaths/min. […] In the five cases where signal enhancement was detected on day 5, MRI sessions were repeated on day 7. […]

[2] = tested on: ACHE (acetylcholine esterase); details: dose-dependent induction of ACHE, rat basal forebrain primary septal culture; according to the supplier; cited from earlier work
[3] = in vivo; cited from earlier work
[4] = tested on: phosphorylated MAPK (T202-T204); test: Immunohistochemistry DAB stain intensity after FUS and BDNF: phosphorylated MAPK; format: in vivo, mice (C57Bl6)
Procedure: (§1) Immunohistochemistry was performed only in the case of BDNF. Five primary antibodies were used: two against phosphorylated TrkB receptor (p-Y816 rabbit polyclonal [ab75173] and p-Y515, rabbit polyclonal [ab51187]) purchased from Abeam Inc. (Cambridge, Mass.), and three against phosphorylated Akt (p-S473 rabbit monoclonal [#4060]), phosphorylated MAPK (p-T202/T204 rabbit monoclonal [#4370]), and phosphorylated CREB (p-S133 rabbit monoclonal [#9198]), all purchased from Cell Signaling Technology (Danvers, Mass.). Slides containing thin frozen sections (5-10 μm) were dried and placed in a citrate buffer (pH 6.0) for antigen retrieval using a microwave. Slides were allowed to cool for 20 minutes prior to a PBS rinse (3×5 min) and then incubated in 0.3% hydrogen peroxide in PBS (five min) to block endogenous peroxidase activity. Slides were washed again in PBS (3×5 min) and blocked in 10% normal goat serum with 0.1% BSA for 20 minutes. After blocking solution was removed, the primary antibodies were diluted in DAKO antibody diluent solution (1:50-1:300) and incubated for 60 minutes at room temperature. Slides were washed in PBS for five min and incubated with biotinylated secondary antibody (goat anti-rabbit 1:200; Vector Laboratories, Burlingame, Calif.) for 30 minutes at room temperature. […]

[5] = tested on: phosphorylated Akt (S473); test: Immunohistochemistry DAB stain intensity after FUS and BDNF: phosphorylated Akt; format: in vivo, mice (C57Bl6)
Procedure: as §1

blood-brain barrier [6] = test: Delivery of Alexa Fluor 594-tagged BDNF across the FUS-opened BBB, fluorescence of brain sections; details: mouse sacrificed 20 min after sonication
[7] = tested on: phosphorylated CREB (S133); test: Immunohistochemistry DAB stain intensity after FUS and BDNF: phosphorylated CREB; format: in vivo, mice (C57Bl6)
Procedure: as §1

[8] = tested on: phosphorylated TrkB receptor (pTrkB Y816 and Y515); test: Immunohistochemistry DAB stain intensity after FUS and BDNF: phosphorylated TrkB; format: in vivo, mice (C57Bl6)
Procedure: as §1

[9] = BDNF-administered mice, sacrificed 20-30 min, N=3

Molecule | time to peak signal enhancement in the sonicated hippocampus after IP injection (blood-brain barrier [1]) | ED50 [2] | half-life of circulating BDNF [3] | mean percent change in DAB stain intensity between left and right hippocampal regions, pMAPK [4, 9] | difference in DAB intensity between sonicated and control hippocampus, pMAPK ([4]; mouse sacrificed 3 min) | difference in DAB intensity between left sonicated hippocampus and control, pAkt ([5]; 3-min case) | mean percent change in DAB stain intensity, pAkt, BDNF-administered mice vs control mice ([5]; sacrificed 20-30 min) | fluorescent intensity, sonicated hippocampus (left) vs un-sonicated hippocampus (right) (blood-brain barrier [6]) | difference in DAB intensity between left sonicated hippocampus and control, pCREB ([7]; 3-min case) | mean percent change in DAB stain intensity between left and right hippocampal regions, pCREB [7, 9] | mean percent change in DAB stain intensity between left and right hippocampal regions, pTrkB (Y515 and Y816 combined) [8, 9] | difference in DAB intensity between left sonicated hippocampus and control, pTrkB ([8]; mouse expiring 3 min after BDNF injection)
CNC(=O)CN(CCN(CCN(CC(=O)[O-])CC(=O)NC)CC(=O)[O-])CC(=O)[O-].[Gd+3] [Gd-DTPA-BMA] | approximately 1 h | – | – | – | – | – | – | – | – | – | – | –
BDNF: BDNF Human Recombinant produced in Escherichia Coli, homodimer, non-glycosylated, 2×119 amino acids, 27 kDa (protein, UniProt P23560 19-247, looked up, E. coli-expressed, non-glycosylated homodimer, BDNF Human Recombinant produced in Escherichia Coli, homodimer, non-glycosylated, 2×119 amino acids, 27 kDa) Neurotrophic factor BDNF …: APMKEANIRGQGGLAYPGVRTHGTLESVNGPKAGSRGLTSLADTFEHVIEELLDEDQKVRPNEENNKDADLYTSRVMLSSQVPLEPPLLFLLEEYKNYLDAANMSMRVRRHSDPARRGELSVCDSISEWVTAADKKTAVDMSGGTVTVLEKVPVSKGQLKQYFYETKCNPMGYTKEGCRGIDKRHWNSQCRTTQSYVRALTMDSKKRIGWRFIRIDTSCVCTLTIKRGR | – | 0.05 µg/mL | less than 10 min | 60.58% | No difference in DAB intensity | not | similar | much higher fluorescent intensity | not | 56.91% | 25.22% | observed
